Data from the nanobody polyreactivity screen of Harvey et al. (2022).

Test: yeast display, Sf9 membrane polyspecificity reagent, FACS + sequencing; frameworks hold sequencing errors
Method in brief: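 Nanobodies from a synthetic yeast display library (Saccharomyces cerevisiae BJ5465), induced 36–48 hours with galactose, were stained 1 hour at 4 °C with 10% biotinylated, detergent-solubilized Sf9 membrane reagent, enriched on streptavidin microbeads, then FACS-sorted. Anti-HA (expression) and streptavidin (reagent binding) fluorescence set low and high (top ~1%) gates. Polyreactivity labels come from the gate of origin. Genes were colony-PCR amplified, MiSeq 2 × 250 sequenced and filtered by CDR length.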

Row | Sequence | polyreactivity (PSR sort gate)
1 | QVQLVESGGGLVQAGGSLRLSCAASGFIFPLYTMGWDRQAPGKERELVAAISVTGGSTYYADSVKGRFTISRDNAKNTVYLQMNSLKPEDTAVYYCAADLYYIWVYGYSSAMDYWGQGTQVTLSS | high polyreactivity
2 | QVQLVESGGGLVQAGGSLRLSCAASGRILSGNAMGWYRQAPGKERELVAAITNAAITKYADSVKGRFTISRDNAKNTVYLQMNSLKPEDTAVYYCATDRYAYKLYDYWGQGTQVTVSS | low polyreactivity
3 | QVQLVESGGGLDQAGGSLRLSCAASGLIFYAYTMGWYRQAPWKERELVAAINYSGGSTYYADSVKGRFTISRDNAKNTVYLQMNSLKPEDTAVYYCATRTGHWGQGTQVTVSS | low polyreactivity
4 | QVQLVESGGGLVQAGGSLRLSCAACGRTFGWYAMGWYRQAPGTERELVATISSRGGATYYADSVKGRFTISRDNAKNTVYFQMNSLKPEDTAVYYCAAYSRTFEGHRGGYWGQGTQVTVSS | high polyreactivity
5 | QVQLVESGGGLVQAGGSLRLSCAASGRIFHRYAMGWDRQAPGKERELVAAINWRTGNTYYADSVKGRFTISRDNAKNTVYLQMNSLTPEDTAVYYCNARYRSDYWGIQYDYWGQGTQVTVSS | high polyreactivity
6 | QDQLVESGGGLLQAGGSLRLSCAASGRNFVRNAMGWYRQAPGKEWELVAAISWSSGGTYYADSVKGRFTISRDNAKYTVYLQMNSLKPEDNSVYYCNARGWTLGADFGYWGQGTQVTVSS | low polyreactivity
7 | QVQLVESGGGLVQAGRSLRLSCAASGRIFYRKAMGWYRQAPGKERELVAGITSGGSTNYADSVKGRFTISRDNEKNTFDLQMNSVKPEDTAVYYCAKASPAKFYSEAGYDYWGQGTQVTVSS | low polyreactivity
8 | QVQLVESGGGLVQAGGSLRLSCAASGRIFGDYAMGWYRQAPGKERELVAGINFSGGSTYYADSVKGRFTISRDNAKNTVYLQMNSLKPEDTAVYYCNVDSSTIWYLVPGDYWGQGTQVTVSS | low polyreactivity
9 | QVQLVESVVGLVQAGVSLRLSCAASGFIVYANAMGWYRQAPGKERELVAAISRGTSTYYADSVKGRFTISRDNAKNTVYLQMTSLKPEDTAVYYCATYYYRPWGGYYWGQGTQVTVSS | high polyreactivity
10 | QVQLVESGGGLVQAGGSLRLSCAASGFILSPNTMGWYRQAPGKERELVAAISSDVSTYADSVKGRFTISRDNAKNTVYLQMNSLKPEDTAVYYCNADDFGYASYEYWGQGTQVTVSS | low polyreactivity
11 | QVQLVESGGGLVQAGGSLRLSCAASGIIFNRYAMGRYRQAPGKERELVASITSSGGSTHYADSVKGRFTISRDNAKNTVYLQMNSLKPEDTAVYYCAKQFPNNYRYYLHYYYWGQGTQVTVSS | low polyreactivity
12 | QVQLVESGGGLVEAGGSLRLSCAASGSIFRINAMGWYRQAPGKERELVAAISTLSGRTYYADSVKGRFTISRDNAKITVYLQMNSLKPEDTAVYYCAVGQARAGLIGGYWGQGTQVTVSS | high polyreactivity
13 | QVQLVESGGRLVQAVGRLRLSCAASGFIFSRYAMRWYRPAPGKERELVAVISYSGGITYYADSVKGRFTISRDNAKNTVYLQMNSLKPEDTAVYYCAVGGTPRYSKYDYWGQGTQVTVSS | low polyreactivity
14 | QVQLVESGGGLVQAGGSLRLSCAASGSTFYHNAMGWYRQAPGKERELVAAITSGTSTYYADSVKGRFTISRDNAKNTVYLQMNSLKPEDTAVYDCAADSPWGGGYFVLYNYWGQGTQVTVSS | low polyreactivity
15 | QVQLVESGGGLVQAGGSLRLSCAASGRTFTRIAMGWYRPAPGKERELVAAIRWRGGGSTYYADSVKGRFTISRDNAKNTVYLQMNSLKPEDTAVYYCNARRYTGTGSAWYYYWGQGTQVTVSS | high polyreactivity
16 | QVQLVESGGGLVQAGGSLRLSCAASGSTIYRYAMGWNRQAPGKERELVATISRTGARTNYADSVKGRFTISRDNAKNTVYLQMNSLKPEDTAVYYCAASAPYIYYWGQGTQVTVSS | high polyreactivity
17 | QVQLVESGGGLVQAGGSLRLSCAASGSIFWPNAMGWYRQAPGKERELVAAISWGTGSTYYADSVKGRFTISRDNAKNTVYLQMNSLKPEDTAVYYCAADGAYLDPYYDYWGQGTQVTVSS | low polyreactivity
18 | QVQHVESGGGLVQAGGSLRLTCAASGSTFVNYAMGWYRQAPGKERELVAAITANGGRTYYADSVKGRFTISRDNAKNTVYLQMNSLKPEDTAVYYCNTESNLYRRRRNYWGQGTQVTVSS | low polyreactivity
19 | QVQLVESGGGLVQAGGSLRLSCAASGITFLHYAMGWYRQAPGKERELVARITYSGSSTYYADSVKGRFTISRDNAKNTVYLQMNSVKPEDTAVYYCNARASWGRWSRTGTPRYDYWGQGTQVTVSS | high polyreactivity
20 | QVQLVESGGGLVQAGGSLRLSCAASGSTFTWYAMGWYRQAPGKERELVARINFSGGSTYADSVKGRFTISRDNAKNTVYLQMNSLKPEDTAVYYCAAVYPGRKARRKYDYWGQGTQVTVSS | low polyreactivity
21 | QVQLVESGGGLVQAGGSLRLTCAASGSILDYYVMGWYRQAPAKEREMVAAIRGGGSTYYADSVKGRFTISRDNAKNTVYLQMNSLKPEDTAVYYCAKDSQTARDFDYWGQGSQVTVSS | low polyreactivity
22 | QVQLVESGGGLVQAGGSLRLSCAASGFIFEYYVMGWYRQAPGKERELVAAISSSDGSTNYADSVKGRFTISRDNAKNTVYLQMNSLKPEDTAVYYCAKDLLKSYNRVVVDADDYWGQGTQVTVSS | low polyreactivity

Row | Sequence | polyreactivity (PSR sort gate)
23 | QVQLVESGGGLVQAGGSLRLSCAASGSTFSDYAMGWYRQATGKERELVAAISKRGGSTYYADSVKGRFTISRDNAKNTVFLQMNSQKPEDTAVYYCNKESLYREFDYWGQGTQVTVSS | low polyreactivity
24 | QVQLVESGGRLVQAGGSLRLSCAASGRIFRYNAMGWYIQAPGKEREFVAAIRGSSSRTYYADSVKGRFTISRDNAKNTVYLQMNSLKPEDTAVYYCNAYVYYSHEDDYWGQGTQVTVSS | high polyreactivity
25 | QVQLVESGGGLVQAGGSLRLSCAASGSIFYGNAMGWYRQAPGKERELVAGISWSGGSTYYADSVKGRFTISRDNAKYTVYLQMNSLKPEDTAVYYCATVADEPRAYSGYEESDYWGQGTQVTVSS | low polyreactivity
26 | QVQLVESGGGLVQAGGSLRLSCAASGRIIFTNAMGWYRQARGKERELVASISRGGVRTYYADSVKGRFTISRDNAKNTVYLQMNSLKPEDTAVYYCDKGYHLVLPPLPQYDYWGQGTQVTVSS | low polyreactivity
27 | QVQLVESGGGLVQAGGSLRLRCAASGRIFTYYTMGWYIQAAGKEMELDANITTGGSTNYADSVKGRFTISRDNAENTVYLQMNSLKPEDSAVYYCNKDGVVEVRFTGRHEYDYWGQGTQVTVSS | low polyreactivity
28 | QVQLVESGGGLVQAGGSLRLSCAASGFIFYSYDMGWYRQAPGKERELVAAIDSRGVNTYFADSVKGRFTISRDNAKNTVYLQMNSLKPEDTAVYYCNVDAITWWDWEDFDSWGQGTQVTVSS | low polyreactivity
29 | QVQLVESGGGLVQAGGSLRLSCAASGSTLGSNTMGWYRQAPGKERELVATISRRGGSTYYADSVKGRFTISRDNAKNTVYLQMNSLKPEDTAVYYCAAPPVYKFTNGDYRSTFFHWGQGTQVTVSS | high polyreactivity
30 | QVQLVESGGGLVQAGGSLRLSCASSGITFILYAMGWYRQAPGKDRELVASITSGGSTDYADSVKGRFTISRDNAKNTVYFQMNSLKPEDTAVYYCAARYVYPYWYGDYYWGQGTQVTVSS | low polyreactivity
31 | QGQLVESGGGLVQAGGSLRLSCAATGLIFDTNAMGWYRQAPGKERELVAAINSTGSTNYADSVKGRFTISRDNAKNTVYLQMNSLKREDTAVYYCAVEYDSSAQPRTEFDYWGQGTQVTVSS | low polyreactivity
32 | QVQLVESGGGLVQAGGSLRLSCAASGSTIVYYAMGWYRQAPGKERELVAAISGSGGSTYYADSVKGRFTISRDNAKNTVYLQMNSLKPEDTAVYYCAKSYGSHRKIRTSFGYWGQGTQVTVSS | high polyreactivity
33 | QVQLVESGGALVQAGGSLRLSCAASGSTMGWYRQAPGKVREFVAAIRWIGGGTYYADSVKGRFTISRDNAKNTVYLQMNSLKPEDTGVYYCAARLSVAWVGYDYWGQGTQVTVSS | low polyreactivity
34 | QVQLVESGGGLVQAGGSLRLSCAASGFIFGVYAMRWYRQAPGKERELVAAISYRTGTTYYADSVKGRFTISRDNAKNTVYLQMNSLKTEDTAVYYCNAAVRGVGELDYWGQGTQVTVSS | high polyreactivity
35 | QVQLVESGGGLVQAGGSLRLSCAASGRIFYGYTMGWYRQAPGKERELVAAISWSGGSTYYADSVKGRFTISRDNAKNTVYLQLNSLKPEDTAVYYCNAVTLWYIYGWDYYYWGQGTQVTVSS | high polyreactivity
36 | QVQLVESGGGLVQAGGSLRLSCAASGSTFYYNAMGWYRQAPGKERELVASISRSGGSTYADSVKGRFTISRDNAKNTVYLQMNSLKPVDTAVYYCNADAYGTPEFTSYAVRYDYWGQGTQVTVSS | low polyreactivity
37 | QDQLVESGGGLVQAGGSLRLSCAASGGNFYGNAMGWYRQAPGKERELVATISRRGGSTYYADSVKGRFTISRDNAKNSVYLQMNSLKPEDTAVYYCAADARSSYYTKRFDYWGQGTQVTVSS | high polyreactivity
38 | QVQLVESGGGLVQAGGSLRLSCAASGTFARYAMGWYRQAPGKERELVAAITRRGGNTYYADSVKGRFTISRDNAKNTVYLQMNSLKPEDTAVYYCARDYYYNYWWMDYWGQGTQVTVSS | high polyreactivity
39 | QVQLVESGGGLVQAGGSLRLSCAASGSTFYRYAMGWYRQAPGKEREFVAAISTRGGSTHYADSVKGRFTISRDTAKNTVYLHMNSLKPEDTAVYYCNARGYYSVPSNTGIRYYRFDYWGQGTQVTVSS | high polyreactivity
40 | QVHHVESGGGLVQAGGCLRLSCAASGFIVRENAMGWYRQAPGKERELVAAISKSGGRTYYADSVKGRFTISRDNAKNTVYLQMNSLKPEDTAVFYCAAYPSYTIHPAGDYWGQGTQVTVSS | high polyreactivity
41 | QVQLVESGGGLVQAGGSLRLSCAASGRIFAGYAMGWYRQAPGKERELVATISSGGSTYYADSVKGRFTISRDNAKNTVYLQMNSLKPEDTAVYYCAAEYGTRQYSSYYKLFNYWGQGTQVTVSS | low polyreactivity
42 | QVQLQESGGVLVQAGGSLRLSCAASGYISWYSEMGWYRKAPCKEREFVATNTCGTTTNYAVSVKGRFTISRDNAKNTVYLQKNSLKPEDTAVYYCAVHDARHYEFDYWGQGTQVTVSS | high polyreactivity
43 | QVQLVESGGGLVQAGGSLRLSCAASGITFYEYAMGWYRQAPGKEREFVAAIDDGDSSTYYADSVKGRFTISRDNAKNTVYLQMNSLKPEDTAVYYCNADPYYDYSLNWGDYWGQGTQVTVSS | low polyreactivity
